Assay [1] deals with T1, cynomolgus monkey IgE (in cynomolgus serum, Harlan Sera-Lab Ltd) (cynomolgus monkey).
T1 construct: Serum was the source of IgE; eight serum samples; also called cynomolgus IgE; Cyno 1 to Cyno 8 serum samples
Description: capture ELISA, Test 2, Cyno 4. As for the experimental part: (§1) Wells were washed once with 150 μL/well wash buffer (0.05% Tween-20, Sigma, Cat. No. P7949/TBS) then blocked with 150 μL/well 1% BSA (Sigma, Cat. No. A7030) in TBS for 2 hours at room temperature. Wells were washed twice with 150 μL wash buffer. 50 μL human (in-house donors) or cynomolgus serum (Harlan Sera-Lab Ltd, Loughborough) was added from neat to at least 1:16 dilution in 1% BSA/0.05% Tween-20/TBS diluent buffer. […] Wells were incubated for 2 hours at 25° C. before washing (3×150 μL wash buffer). […] Wells were incubated for 1 hour at 25° C. then washed (3×150 μL wash buffer). Streptavidin-HRP (Amersham Bioscience, Cat. No. RPN 1231) diluted 1:1000 in diluent buffer was added to all wells and incubated for 45 minutes at room temperature. Wells were washed (3×150 […] wash buffer). 50 μL OPD (Dako, Cat. No. S2045) was added to all wells and the color allowed to develop for 10 minutes before stopping the reaction with 50 μl 0.6M H₂SO₄ and the absorbance measured at 490 nm.
(In general: ELISA stands for enzyme-linked immunosorbent assay.)

Assay [2] addresses T2, free IgE in human serum (healthy volunteers, in-house donors) (human, UniProt P01854-1 1-428).
T2 construct: Kept apart from the bought myeloma IgE because it is native serum IgE of single donors; also called serum IgE
Briefly: serum free IgE depletion ELISA; DIN 0011 experiment 2. How it is done:
(§2) The next day ELISA plates were washed 1× with 300 μL/well wash buffer (0.05% Tween-20, Sigma, Cat. No. P7949/TBS) then blocked with 150 μL/well 1% BSA (Sigma, Cat. No. A7030) in TBS for 1 hour at room temperature.

The target of assay [3] is T3, human IgA (Sigma, Cat. No. I2636) (human).
T3 chain: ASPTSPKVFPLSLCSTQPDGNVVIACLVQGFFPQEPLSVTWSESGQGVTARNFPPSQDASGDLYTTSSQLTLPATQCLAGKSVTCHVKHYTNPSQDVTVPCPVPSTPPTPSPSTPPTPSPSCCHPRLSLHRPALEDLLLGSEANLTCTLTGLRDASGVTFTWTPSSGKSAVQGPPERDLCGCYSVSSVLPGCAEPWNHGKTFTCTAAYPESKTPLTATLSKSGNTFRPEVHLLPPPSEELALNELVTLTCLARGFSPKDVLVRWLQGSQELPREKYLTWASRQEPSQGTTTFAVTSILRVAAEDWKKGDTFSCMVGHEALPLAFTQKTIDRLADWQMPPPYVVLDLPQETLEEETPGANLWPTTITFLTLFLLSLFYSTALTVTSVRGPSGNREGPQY
Briefly: ELISA on coated immunoglobulin. As for the experimental part:
(§3) Wells were washed 3× with 150 μL wash buffer (0.05% Tween-20 (Sigma, Cat. No. P7949)/PBS) then blocked with 150 μL/well blocking buffer (2.5% BSA (Sigma, Cat. No. A7030)/PBS) for 2 hours at room temperature. Wells were washed 3× with 150 μL wash buffer/well. […] Antibodies were diluted in diluent buffer (PBS/1% BSA/0.05% Tween-20) and this was added to blank control wells (duplicate wells for each secondary antibody used). Antibodies were incubated for 2 hours at room temperature. Wells were washed 3× with 150 μL wash buffer/well. Binding of control antibodies to immunoglobulin was detected with anti-mouse IgG-HRP conjugate (Sigma, Cat. No. A4416) diluted 1:8000 in diluent buffer. 50 μL/well was added to control antibody and blank wells. Wells were incubated for 1 hour at room temperature, then washed 3× with 150 μL wash buffer/well. 50 μl OPD (Dako, Cat. No. […] Wells were incubated for 1 hour at room temperature then washed 3× with 150 μL wash buffer/well. Streptavidin-HRP (Amersham Bioscience, Cat. No. RPN 1231) diluted 1:2000 in diluent buffer was added to all wells and incubated for 45 minutes at room temperature. Wells were washed (3×150 μL wash buffer).

The target of assay [4] is T4, human IgE (Human myeloma, azide free, Serotec, Cat. No. PHP008X2) (human, UniProt P01854 1-546).
T4 construct: mature; Bought full length human myeloma IgE; in the BIAcore kinetics Serotec PHP008X2 or Europa Bioproducts CP1035K was used; also called full length human IgE; human immunoglobulin E
Description: ELISA on coated immunoglobulin. As for the experimental part: as §3

Assay [5] deals with T5, human IgG1 (Biodesign, Cat. No. A50183H) (human).
T5 construct: Bought immunoglobulin coated on the plate
Briefly: ELISA on coated immunoglobulin. How it is done: as §3

Assay [6] deals with T6, human IgG3 (Biodesign, Cat. No. A50186H) (human).
T6 construct: Bought immunoglobulin coated on the plate
Description: ELISA on coated immunoglobulin. How it is done: as §3

For assay [7], the target named is T1, cynomolgus monkey IgE (in cynomolgus …). Description: capture ELISA, Test 2, Cyno 5. How it is done: as §1
For assay [8], the target named is T2, free IgE in human serum (healthy …). Description: serum free IgE depletion ELISA; DIN 0623 experiment 1. As for the experimental part: as §2
The target of assay [9] is T1, cynomolgus monkey IgE (in cynomolgus …). Briefly: capture ELISA, Test 2, Cyno 1. As for the experimental part: as §1
In assay [10] the target is T2, free IgE in human serum (healthy …). Description: serum free IgE depletion ELISA; DIN 0451 experiment 2. As for the experimental part: as §2
For assay [11] the target is unchanged. Description: serum free IgE depletion ELISA; DIN 0623 experiment 2. How it is done: as §2
The target is the same in assay [12]. Description: serum free IgE depletion ELISA; DIN 0321 experiment 2. How it is done:
as §2

Assay [13] has the same target. Briefly: serum free IgE depletion ELISA; DIN 0649. As for the experimental part:
as §2

In assay [14] the target is T1, cynomolgus monkey IgE (in cynomolgus …). Briefly: capture ELISA, Test 1, Cyno 3. How it is done: as §1
The target is the same in assay [15]. Description: capture ELISA, Test 1, Cyno 6. As for the experimental part:
as §1

T2 sequence (P01854 other isoform, or with tags, fused parts or gaps): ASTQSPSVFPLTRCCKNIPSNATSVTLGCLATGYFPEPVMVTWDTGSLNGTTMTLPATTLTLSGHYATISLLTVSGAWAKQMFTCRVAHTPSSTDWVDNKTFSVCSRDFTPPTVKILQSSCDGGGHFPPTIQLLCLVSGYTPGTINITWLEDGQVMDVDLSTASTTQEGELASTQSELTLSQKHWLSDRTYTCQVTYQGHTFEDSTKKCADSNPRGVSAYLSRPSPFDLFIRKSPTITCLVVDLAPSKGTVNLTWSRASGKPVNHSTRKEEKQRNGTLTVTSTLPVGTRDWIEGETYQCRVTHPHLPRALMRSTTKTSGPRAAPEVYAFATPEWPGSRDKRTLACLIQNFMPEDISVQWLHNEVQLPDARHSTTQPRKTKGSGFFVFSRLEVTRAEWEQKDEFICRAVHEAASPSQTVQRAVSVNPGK
T4 sequence (P01854 whole entry): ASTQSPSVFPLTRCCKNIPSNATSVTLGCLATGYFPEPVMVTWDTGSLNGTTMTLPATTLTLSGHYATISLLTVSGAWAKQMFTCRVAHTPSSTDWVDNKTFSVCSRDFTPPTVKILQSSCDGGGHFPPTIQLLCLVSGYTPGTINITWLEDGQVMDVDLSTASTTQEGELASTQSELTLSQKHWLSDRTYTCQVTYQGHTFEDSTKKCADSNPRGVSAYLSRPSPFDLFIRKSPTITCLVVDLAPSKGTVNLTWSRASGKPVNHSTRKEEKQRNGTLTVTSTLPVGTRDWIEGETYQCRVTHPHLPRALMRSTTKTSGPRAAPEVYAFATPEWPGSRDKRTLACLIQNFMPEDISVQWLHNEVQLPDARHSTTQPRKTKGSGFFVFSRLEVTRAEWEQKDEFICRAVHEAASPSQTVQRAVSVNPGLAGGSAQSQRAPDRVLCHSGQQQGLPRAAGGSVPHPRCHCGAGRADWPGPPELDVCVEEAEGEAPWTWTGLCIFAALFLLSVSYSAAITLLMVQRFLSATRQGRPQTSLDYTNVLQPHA

B1: 5.948.1 (recombinant) (antibody, human IgG2, kappa, V domains shown)
VH: QVQLVQSGAEVKKPGASVKVSCKASGYTFTSYDINWVRQATGQGLEWMGWMDPNSGNTGYAQKFQGRVTMTRNTSISTAYMELSSLRSEDTAVYYCARGHYDSDGYYSFSGMDVWGQGTTVTVSS
VL: not shown
notes: Human IgG2 kappa; leader omitted; Two batches were tested in some assays; also called recombinant 5.948.1; 5.948.1 - Batch 1 (762.8 µg/mL)
On to B1, for which the IgE concentration detected came to 38 ng/mL in assay [1]; 630 ng/mL in assay [7]; 289 ng/mL in [9]; 457 ng/mL in assay [14]; 53 ng/mL in assay [15]. In addition, the “IC25 ng/mL” value in assay [2] came to 6.34 µg/mL; in [8], 0.5 µg/mL; in assay [10], 39.7 µg/mL; in assay [11], 4.13 µg/mL; in assay [12], 7.9 µg/mL; in [13], 1.95 µg/mL. For the same molecule, the A290 nm is 0.04 A290 nm in assay [3], 2.57 A290 nm in [4], 0.07 A290 nm in [5] and 0.04 A290 nm in [6].

B2: 5.948.1 Hc-H100Y (antibody, human IgG2, kappa, V domains shown)
VH: QVQLVQSGAEVKKPGASVKVSCKASGYTFTSYDINWVRQATGQGLEWMGWMDPNSGNTGYAQKFQGRVTMTRNTSISTAYMELSSLRSEDTAVYYCARGYYDSDGYYSFSGMDVWGQGTTVTVSS
VL: not shown
notes: Human IgG2 kappa; leader omitted; also called 5.948.1 (H100Y); 5.948.1 H100Y
On to B2, for which the IgE concentration detected in [1] was found to be 25 ng/mL; in assay [7], 420 ng/mL; in assay [9], 170 ng/mL. The “IC25 ng/mL” value in assay [2] worked out at 2.96 µg/mL; in assay [10], 10.5 µg/mL; in assay [11], 0.76 µg/mL; in assay [12] it was 2.55 µg/mL; in assay [13] it was 0.39 µg/mL. For the same molecule, the A290 nm was 0.05 A290 nm in assay [3], 1.05 A290 nm in [4], 0.06 A290 nm in [5] and 0.06 A290 nm in assay [6].
